Test results taken from patent US20180230235A1.

Target: Human CAIX (carbonic anhydrase IX) (human) (UniProt Q16790)
Test: ELISA screening, biotinylated human CAIX 0.25 ug/ml, negative control wells

absorbance at 450 nm: 0.1 AU
Substance: negative control of the ELISA screening of the maturated library (designed binder)
